Patent publication US20230130737A1
pKd: −log10 of the molar value.

What was measured:
[1] = target: trifunctional high FHR4-valence heteromultimer multi-FHR4.C4bpα.His/multi-2D3 VHH anti-Her2.C4bpα.FLAG/mono-eGFP.C4bpβ (human) (UniProt Q92496); test: SPR (Biacore); affinity with factor B against C3b alone
[2] = target: trifunctional high FHR4-valence heteromultimer multi-FHR4.C4bpα.His/multi-2D3 VHH anti-Her2.C4bpα.FLAG/mono-eGFP.C4bpβ (human) (UniProt Q92496); test: SPR (Biacore); bound RU with factor B against C3b alone
[3] = target: trifunctional high FHR4-valence heteromultimer multi-FHR4.C4bpα.His/multi-2D3 VHH anti-Her2.C4bpα.FLAG/mono-eGFP.C4bpβ (human) (UniProt Q92496); test: SPR (Biacore); FH multimer immobilised via Ni2+/NTA, C3b dose series with about 20 µg/ml Factor B as analyte
[4] = target: trifunctional high FHR4-valence heteromultimer multi-FHR4.C4bpα.His/multi-2D3 VHH anti-Her2.C4bpα.FLAG/mono-eGFP.C4bpβ (human) (UniProt Q92496); test: SPR (Biacore); FH multimer immobilised via Ni2+/NTA, C3b dose series as analyte

trifunctional high FHR4-valence heteromultimer multi-FHR4.C4bpα.His/multi-2D3 VHH anti-Her2.C4bpα.FLAG/mono-eGFP.C4bpβ (human), sequence (Q92496 other isoform, or with tags, fused parts or gaps, chain 1 of 3): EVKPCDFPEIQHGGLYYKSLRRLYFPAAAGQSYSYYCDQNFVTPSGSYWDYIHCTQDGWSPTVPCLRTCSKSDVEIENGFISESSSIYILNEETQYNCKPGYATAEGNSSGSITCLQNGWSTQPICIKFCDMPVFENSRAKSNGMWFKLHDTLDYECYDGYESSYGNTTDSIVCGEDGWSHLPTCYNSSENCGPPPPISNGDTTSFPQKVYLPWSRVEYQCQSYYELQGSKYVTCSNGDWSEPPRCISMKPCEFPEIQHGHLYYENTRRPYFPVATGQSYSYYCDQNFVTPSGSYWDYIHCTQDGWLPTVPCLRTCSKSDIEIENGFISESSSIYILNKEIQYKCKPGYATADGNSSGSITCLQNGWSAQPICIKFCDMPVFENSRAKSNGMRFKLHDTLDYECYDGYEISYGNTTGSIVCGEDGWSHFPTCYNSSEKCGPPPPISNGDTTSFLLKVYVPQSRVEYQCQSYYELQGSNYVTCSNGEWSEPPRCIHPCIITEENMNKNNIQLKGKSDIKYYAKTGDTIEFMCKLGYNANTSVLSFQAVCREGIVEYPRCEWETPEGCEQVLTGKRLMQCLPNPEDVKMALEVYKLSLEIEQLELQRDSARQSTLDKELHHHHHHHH
trifunctional high FHR4-valence heteromultimer multi-FHR4.C4bpα.His/multi-2D3 VHH anti-Her2.C4bpα.FLAG/mono-eGFP.C4bpβ (human), sequence (P04003 540-597, chain 2 of 3, further chain): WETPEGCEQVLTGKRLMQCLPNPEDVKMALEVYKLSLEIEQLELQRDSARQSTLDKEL
trifunctional high FHR4-valence heteromultimer multi-FHR4.C4bpα.His/multi-2D3 VHH anti-Her2.C4bpα.FLAG/mono-eGFP.C4bpβ (human), sequence (P20851 137-252, chain 3 of 3, further chain): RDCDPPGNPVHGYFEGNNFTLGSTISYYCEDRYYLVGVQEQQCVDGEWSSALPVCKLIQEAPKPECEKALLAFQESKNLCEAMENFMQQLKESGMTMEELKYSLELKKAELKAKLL

increase of binding affinity against C3b alone [1] [logs]	enhancement factor of bound C3b against C3b alone [2] [fold]	pKd [3]	pKd [4]	Substance
2	5	8.06		C3b in the presence of Factor B (about 20 µg/ml) (from UniProt P01024 23-1663; P00751 26-764)
			6.02	C3b (from UniProt P01024 749-1663)
